Data from patent publication US20150037348A1 (AbbVie / Abbott, published 2015).

B1: 26-1 (scFv, V domains shown)
VH: QVQLVQSGGGVVQPGRSLRLSCAASGFTFSSYGMHWVRQAPGKGLEWVAFIRYDGSNKYYADSVKGRFTISRDNSKNTLYLQMKSLRAEDTAVYYCTTHGSHDNWGQGTMVTVSS
VL: SYVLTQPPSVSGTPGQRVTISCSGGRSNIGSNTVKWYQQLPGTAPKLLIYGNDQRPSGVPDRFSGSKSGTSASLAITGVQAEDEADYYCQSYDSSLWGSRVFGTGTKVTVL
notes: scFv; also called 26-1 (2, 3)
B2: 70-1 (scFv, V domains shown)
VH: QVQLVQSGGGVVQPGRSLRLSCAASGFTFSSYGMHWVRQAPGKGLEWVAFIRYDGSNKYYADSVKGRFTISRDNSKNTLYLQMKSLRAEDTAVYYCTTHGSHDNWGQGTMVTVSS
VL: SYVLTQPPSVSGTPGQRVTISCSGGRSNIGSNTVKWYQQLPGTAPKLLIYGNDQRPSGVPDRFSGSKSGTSASLAITGVQAEDEADYYCQSYDSSLRGSRVFGTGTKVTVL
notes: scFv
B3: Y61 (scFv, V domains shown)
VH: QVQLVQSGGGVVQPGRSLRLSCAASGFTFSSYGMHWVRQAPGKGLEWVAFIRYDGSNKYYADSVKGRFTISRDNSKNTLYLQMKSLRAEDTAVYYCKTHGSHDNWGQGTMVTVSS
VL: SYVLTQPPSVSGTPGQRVTISCSGGRSNIGSNTVKWYQQLPGTAPKLLIYGNDQRPSGVPDRFSGSKSGTSASLAITGVQAEDEADYYCQSYDRGTHPALLFGTGTKVTVL
notes: also called Y61 scFv; clone Y61; not shown: scFv linker and any tags
B4: A4 (scFv, V domains shown)
VH: QVQLVQSGGGVVQPGRSLRLSCAASGFTFSSYGMHWVRQAPGKGLEWVAFIRYDGSNKYYADSVKGRFTISRDNSKNTLYLQMKSLRAEDTAVYYCKTHGSHDNWGQGTMVTVSS
VL: SYVLTQPPSVSGTPGQRVTISCSGGRSNIGSNTVKWYQQLPGTAPKLLIYGNDQRPSGVPDRFSGSKSGTSASLAITGVQAEDEADYYCQSYDRGRNPALTFGTGTKVTVL
notes: scFv clone
B5: A5 (scFv, V domains shown)
VH: QVQLVQSGGGVVQPGRSLRLSCAASGFTFSSYGMHWVRQAPGKGLEWVAFIRYDGSNKYYADSVKGRFTISRDNSKNTLYLQMKSLRAEDTAVYYCKTHGSHDNWGQGTMVTVSS
VL: SYVLTQPPSVSGTPGQRVTISCSGGRSNIGSNTVKWYQQLPGTAPKLLIYGNDQRPSGVPDRFSGSKSGTSASLAITGVQAEDEADYYCQSYDRGTHPSMLFGTGTKVTVL
notes: scFv clone
B6: A12 (scFv, V domains shown)
VH: QVQLVQSGGGVVQPGRSLRLSCAASGFTFSSYGMHWVRQAPGKGLEWVAFIRYDGSNKYYADSVKGRFTISRDNSKNTLYLQMKSLRAEDTAVYYCKTHGSHDNWGQGTMVTVSS
VL: SYVLTQPPSVSGTPGQRVTISCSGGRSNIGSNTVKWYQQLPGTAPKLLIYGNDQRPSGVPDRFSGSKSGTSASLAITGVQAEDEADYYCQSYDRGTTPRPMFGTGTKVTVL
notes: scFv clone
B7: AO3 (scFv, V domains shown)
VH: QVQLVQSGGGVVQPGRSLRLSCAASGFTFSSYGMHWVRQAPGKGLEWVAFIRYDGSNKYYADSVKGRFTISRDNSKNTLYLQMKSLRAEDTAVYYCKTHGSHDNWGQGTMVTVSS
VL: SYVLTQPPSVSGTPGQRVTISCSGGRSNIGSNTVKWYQQLPGTAPKLLIYGNDQRPSGVPDRFSGSKSGTSASLAITGVQAEDEADYYCQSYDRGTHPLTMFGTGTKVTVL
notes: scFv clone; only the CDR3s are tied to it
B8: C6 (scFv, V domains shown)
VH: QVQLVQSGGGVVQPGRSLRLSCAASGFTFSSYGMHWVRQAPGKGLEWVAFIRYDGSNKYYADSVKGRFTISRDNSKNTLYLQMKSLRAEDTAVYYCKTHGSHDNWGQGTMVTVSS
VL: SYVLTQPPSVSGTPGQRVTISCSGGRSNIGSNTVKWYQQLPGTAPKLLIYGNDQRPSGVPDRFSGSKSGTSASLAITGVQAEDEADYYCQSYDRGQTPSITFGTGTKVTVL
notes: scFv clone
B9: G6 (scFv, V domains shown)
VH: QVQLVQSGGGVVQPGRSLRLSCAASGFTFSSYGMHWVRQAPGKGLEWVAFIRYDGSNKYYADSVKGRFTISRDNSKNTLYLQMKSLRAEDTAVYYCKTHGSHDNWGQGTMVTVSS
VL: SYVLTQPPSVSGTPGQRVTISCSGGRSNIGSNTVKWYQQLPGTAPKLLIYGNDQRPSGVPDRFSGSKSGTSASLAITGVQAEDEADYYCQSYDRGTHPLTIFGTGTKVTVL
notes: scFv clone
B10: Y38 (scFv, V domains shown)
VH: QVQLVQSGGGVVQPGRSLRLSCAASGFTFSSYGMHWVRQAPGKGLEWVAFIRYDGSNKYYADSVKGRFTISRDNSKNTLYLQMKSLRAEDTAVYYCKTHGSHDNWGQGTMVTVSS
VL: SYVLTQPPSVSGTPGQRVTISCSGGRSNIGSNTVKWYQQLPGTAPKLLIYGNDQRPSGVPDRFSGSKSGTSASLAITGVQAEDEADYYCQSYDRGTHPSITFGTGTKVTVL
notes: scFv clone
B11: Y45 (scFv, V domains shown)
VH: QVQLVQSGGGVVQPGRSLRLSCAASGFTFSSYGMHWVRQAPGKGLEWVAFIRYDGSNKYYADSVKGRFTISRDNSKNTLYLQMKSLRAEDTAVYYCKTHGSHDNWGQGTMVTVSS
VL: SYVLTQPPSVSGTPGQRVTISCSGGRSNIGSNTVKWYQQLPGTAPKLLIYGNDQRPSGVPDRFSGSKSGTSASLAITGVQAEDEADYYCQSYDRGTDPAIVFGTGTKVTVL
notes: scFv clone
B12: Y61-L50Y (scFv, V domains shown)
VH: QVQLVQSGGGVVQPGRSLRLSCAASGFTFSSYGMHWVRQAPGKGLEWVAFIRYDGSNKYYADSVKGRFTISRDNSKNTLYLQMKSLRAEDTAVYYCKTHGSHDNWGQGTMVTVSS
VL: QSVLTQPPSVSGAPGQRVTISCSGSRSNIGSNTVKWYQQLPGTAPKLLIYYNDQRPSGVPDRFSGSKSGTSASLAITGLQAEDEADYYCQSYDRGTHPALLFGTGTKVTVL
B13: Y139 (scFv, V domains shown)
VH: QVQLVQSGGGVVQPGRSLRLSCAASGFTFSSYGMHWVRQAPGKGLEWVAFIRYDGSNKYYADSVKGRFTISRDNSKNTLYLQMKSLRAEDTAVYYCKTHGSHDNWGQGTMVTVSS
VL: SYVLTQPPSVSGTPGQRVTISCSGGRSNIGSNTVKWYQQLPGTAPKLLIYGNDQRPSGVPDRFSGSKSGTSASLAITGVQAEDEADYYCQSYDRGSHPALTFGTGTKVTVL
notes: scFv clone
B14: Y174 (scFv, V domains shown)
VH: QVQLVQSGGGVVQPGRSLRLSCAASGFTFSSYGMHWVRQAPGKGLEWVAFIRYDGSNKYYADSVKGRFTISRDNSKNTLYLQMKSLRAEDTAVYYCKTHGSHDNWGQGTMVTVSS
VL: SYVLTQPPSVSGTPGQRVTISCSGGRSNIGSNTVKWYQQLPGTAPKLLIYGNDQRPSGVPDRFSGSKSGTSASLAITGVQAEDEADYYCQSYDRGTTPAPEFGTGTKVTVL
notes: scFv clone
B15: Y177 (scFv, V domains shown)
VH: QVQLVQSGGGVVQPGRSLRLSCAASGFTFSSYGMHWVRQAPGKGLEWVAFIRYDGSNKYYADSVKGRFTISRDNSKNTLYLQMKSLRAEDTAVYYCKTHGSHDNWGQGTMVTVSS
VL: SYVLTQPPSVSGTPGQRVTISCSGGRSNIGSNTVKWYQQLPGTAPKLLIYGNDQRPSGVPDRFSGSKSGTSASLAITGVQAEDEADYYCQSYDRGSHPTLIFGTGTKVTVL
notes: scFv clone
B16: 73-B7 (scFv, V domains shown)
VH: QVQLVQSGGGVVQPGRSLRLSCAASGFTFSSYGMHWVRQAPGKGLEWVAFIRYDGSNKYYADSVKGRFTISRDNSKNTLYLQMKSLRAEDTAVYYCTTHGSQDNWGQGTMVTVSS
VL: SYVLTQPPSVSGTPGQRVTISCSGGRSNIGSNTVKWYQQLPGTAPKLLIYGNDQRPSGVPDRFSGSKSGTSASLAITGVQAEDEADYYCQSYDSSLRGSRVFGTGTKVTVLG

Key:
human IL-12 [1] = biological target: T1, human IL-12 (human, UniProt P29459 23-219; P29460 23-328); experiment: cell-based or functional assay
T1 sequence (looked up) 1: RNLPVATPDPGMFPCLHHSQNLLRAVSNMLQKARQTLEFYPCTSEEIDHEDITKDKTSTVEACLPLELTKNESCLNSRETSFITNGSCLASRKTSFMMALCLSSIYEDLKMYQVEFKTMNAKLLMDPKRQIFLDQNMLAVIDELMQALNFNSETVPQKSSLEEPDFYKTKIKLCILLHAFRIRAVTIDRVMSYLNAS
T1 sequence (looked up) 2: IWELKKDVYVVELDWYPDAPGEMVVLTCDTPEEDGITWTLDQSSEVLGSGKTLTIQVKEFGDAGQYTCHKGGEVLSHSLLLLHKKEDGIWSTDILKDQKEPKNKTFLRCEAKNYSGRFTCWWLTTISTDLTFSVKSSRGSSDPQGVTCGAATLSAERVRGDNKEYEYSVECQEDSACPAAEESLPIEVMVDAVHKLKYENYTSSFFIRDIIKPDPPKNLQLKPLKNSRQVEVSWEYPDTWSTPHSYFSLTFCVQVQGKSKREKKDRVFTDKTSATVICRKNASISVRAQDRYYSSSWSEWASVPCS

human IL-12 [2] = biological target: T1, human IL-12; experiment: SPR (BIAcore), IL-12 chip
Source text: The system utilizes the optical properties of SPR to detect alterations in protein concentrations within a dextran biosensor matrix. Proteins are covalently bound to the dextran matrix at known concentrations. […] To determine the off rate (koff), on rate (kₒₙ), association rate (Ka) and dissociation rate (Kd) constants, BIAcore kinetic evaluation software (version 2.1) was used.

[3] = biological target: T2, recombinant human IL-12 (rhIL-12) (human, UniProt P29459 23-219; P29460 23-328); experiment: cell-based or functional assay
T2 sequence (looked up) 1: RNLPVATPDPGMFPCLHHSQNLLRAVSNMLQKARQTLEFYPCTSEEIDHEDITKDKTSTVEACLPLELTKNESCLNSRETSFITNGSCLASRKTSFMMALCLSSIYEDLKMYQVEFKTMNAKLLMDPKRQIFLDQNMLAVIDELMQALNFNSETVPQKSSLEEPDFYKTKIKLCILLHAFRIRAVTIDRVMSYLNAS
T2 sequence (looked up) 2: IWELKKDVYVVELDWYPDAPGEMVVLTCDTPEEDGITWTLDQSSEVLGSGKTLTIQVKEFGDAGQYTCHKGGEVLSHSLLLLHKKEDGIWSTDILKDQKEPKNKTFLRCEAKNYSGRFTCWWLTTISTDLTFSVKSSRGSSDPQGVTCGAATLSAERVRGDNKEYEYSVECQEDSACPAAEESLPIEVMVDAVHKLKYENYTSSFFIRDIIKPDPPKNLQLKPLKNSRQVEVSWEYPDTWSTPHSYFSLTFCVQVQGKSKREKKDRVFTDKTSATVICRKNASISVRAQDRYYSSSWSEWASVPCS

[4] = biological target: T2, recombinant human IL-12 (rhIL-12); experiment: BIAcore SPR, IL-12 on chip
[5] = biological target: T2, recombinant human IL-12 (rhIL-12); experiment: receptor binding assay, 125I-hIL-12 on PHA blasts
Experimental: (§1) PHA blast cells isolated as described above, were washed once and resuspended in binding buffer to a cell density of 2×10⁷ cells/ml. […] The cell pellet was examined for cell bound radioactivity using a gamma counter. […] Incubations were carried out in duplicate.

human IL-12 [6] = biological target: T1, human IL-12; experiment: RB assay: 125I-hIL-12 binding to PHA blasts
Experimental: as §1

Row | Binder | PHA assay IC50 (human IL-12 [1]) | koff (human IL-12 [2]) | PHA assay IC50 [3] | koff [4] | IC50 [5] | IFN gamma IC50 [3] | IC50 (human IL-12 [6])
1 | B1 | 60 nM | 0.0074 s⁻¹ | – | – | – | – | –
2 | B2 | 200 nM | 0.0134 s⁻¹ | – | – | – | – | –
3 | B3 | – | – | 0.14 nM | 0.000275 s⁻¹ | 0.04 nM | – | –
4 | B4 | – | – | – | 0.00063 s⁻¹ | 0.25 nM | – | –
5 | B5 | – | – | – | 0.00045 s⁻¹ | 0.066 nM | – | –
6 | B6 | – | – | – | 0.000557 s⁻¹ | 0.25 nM | – | –
7 | B7 | – | – | 0.4 nM | 0.000304 s⁻¹ | 0.03 nM | – | –
8 | B8 | – | – | 10 nM | 0.00107 s⁻¹ | 0.35 nM | – | –
9 | B9 | – | – | 1 nM | 0.000508 s⁻¹ | 0.1 nM | – | –
10 | B10 | – | – | 2.6 nM | 0.000508 s⁻¹ | 0.055 nM | – | –
11 | B11 | – | – | 4.3 nM | 0.000617 s⁻¹ | 0.04 nM | – | –
12 | B12 | – | – | – | – | 0.02 nM | 20 pM | –
13 | B13 | – | – | 0.45 nM | 0.000592 s⁻¹ | 0.03 nM | – | –
14 | B14 | – | – | 2 nM | 0.000755 s⁻¹ | 0.06 nM | – | –
15 | B15 | – | – | 1 nM | 0.000661 s⁻¹ | 0.05 nM | – | –
16 | B16 | – | 0.0025 s⁻¹ | – | – | – | – | 7 nM
